Columns and labels:
[1] = biological target: MtrAB (native, the MtrAB component of the MtrCAB complex) (Shewanella oneidensis MR-1); assay: small-angle neutron scattering (SANS); co-purified native MtrCAB at 3.5 and 9.7 mg/ml in 20 mM HEPES pH 7.8, 100 mM NaCl, 2.8 mM Fos-choline-12, 13% D2O (detergent contrast-matched); molecular mass from I(0), ab initio envelope
[2] = biological target: MtrCAB porin–cytochrome complex (Shewanella oneidensis MR-1)

Question: For “MtrC (native, from the MtrCAB complex) (natural protein)”, which stoichiometry N [1] is on record?
Answer: The stoichiometry N was 1.

Question: “small tetraheme cytochrome (STC) (natural protein)” was tested. Which rate of electron transfer from STC internalised in MtrCAB proteoliposomes to external Fe(III) citrate (absorbance at 550 nm) (nM electrons s^-1) [2] did it give?
Answer: Its rate of electron transfer from STC internalised in MtrCAB proteoliposomes to external Fe(III) citrate (absorbance at 550 nm) (nM electrons s^-1) is 61.

Question: What about the rate of electron transfer from external sodium dithionite to STC internalised in MtrCAB proteoliposomes (absorbance at 550 nm) (nM electrons s^-1) [2] of the same substance?
Answer: Its rate of electron transfer from external sodium dithionite to STC internalised in MtrCAB proteoliposomes (absorbance at 550 nm) (nM electrons s^-1) is 140.
